This is an account of results in doi:10.1101/2020.08.07.241737 (bioRxiv, 2020).

This test concerns the target T1, COP1-His recombinant protein (Arabidopsis thaliana, UniProt P43254 1-675).
T1 sequence (looked up): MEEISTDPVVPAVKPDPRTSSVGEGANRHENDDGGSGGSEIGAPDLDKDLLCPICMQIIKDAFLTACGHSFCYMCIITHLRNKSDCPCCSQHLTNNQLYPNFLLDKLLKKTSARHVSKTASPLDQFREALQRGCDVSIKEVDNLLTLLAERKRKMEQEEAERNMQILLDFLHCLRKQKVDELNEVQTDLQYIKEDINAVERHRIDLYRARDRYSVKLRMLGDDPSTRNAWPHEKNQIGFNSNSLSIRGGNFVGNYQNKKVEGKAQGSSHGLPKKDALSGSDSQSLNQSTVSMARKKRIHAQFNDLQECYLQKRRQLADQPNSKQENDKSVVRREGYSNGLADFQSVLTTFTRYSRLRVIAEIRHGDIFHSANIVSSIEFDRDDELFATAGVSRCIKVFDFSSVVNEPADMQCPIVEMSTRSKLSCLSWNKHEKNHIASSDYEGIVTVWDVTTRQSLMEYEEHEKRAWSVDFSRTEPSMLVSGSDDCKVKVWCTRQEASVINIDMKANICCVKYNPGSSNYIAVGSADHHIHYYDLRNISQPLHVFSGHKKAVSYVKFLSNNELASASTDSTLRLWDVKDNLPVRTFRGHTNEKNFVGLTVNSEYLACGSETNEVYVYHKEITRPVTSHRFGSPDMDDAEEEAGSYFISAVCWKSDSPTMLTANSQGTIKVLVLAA
Nature of the test: pull-down.

B1: GST-HDA15 recombinant protein (enzyme, Arabidopsis thaliana, UniProt Q8GXJ1 1-552, looked up)
chain: MVVETIERSCEGSKRRHVNGGDIAVPCSGEECSNGDINVAPGVSAKRARVSREMTFEDIYGADALLNDDDDEDDDCDWEPVQAPMEFVKWCCVNCTMSNPGDMVHCCICGEHKESGILRHGYLASPFFKDTGLIEVEEKYGGSSSATSSTAVGFDERMLLHSEFEVKAQPHPERPDRLRAIAASLATAGVFPGRCLPINAREITKQELQMVHTSEHVDAVDTTSQLLYSYFTSDTYANEYSARAARLAAGLCADLATDIFTGRVKNGFALVRPPGHHAGVRHAMGFCLHNNAAVAALVAQAAGAKKVLIVDWDVHHGNGTQEIFEQNKSVLYISLHRHEGGNFYPGTGAADEVGSNGGEGYCVNVPWSCGGVGDKDYIFAFQHVVLPIASAFSPDFVIISAGFDAARGDPLGCCDVTPAGYSRMTQMLGDLCGGKMLVILEGGYNLRSISASATAVIKVLLGENPENELPIATTPSVAGLQTVLDVLNIQLEFWPSLAISYSKLLSELEARLIENKKNQMKRKVVRVPTWWKWGRKKLLYNFLSARMISRSK
Regarding B1, the binding result is “binds”.
